Data: the NTF2 design screens of Basanta et al. (2020)

Assay: protease stability score; higher = more stable; yeast display proteolysis, trypsin and chymotrypsin;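 further: log10 excess protease needed over predicted unfolded state with 0 meaning unfolded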

DEDKLREVAEEMNKGDPQTLADNADKDARLRVGDREWHGREDVEKFNNQWRREVDHVDIERVTVSPNRVEAVYVVTVNGKRIHAKFEAKVHDGRIKEMTVSVTNPEQQKDLERQVD
protease stability score: -0.1

DEDLTKRFRQLIKAQETGDPDKIKNQVDKDVHAHVGDKTVSGREKLATQIHRDVQHSHFKVHVDNVRNHGNKVEVDARMVMNINGRPVTFTVNMDFTFHDGTIHRIKMSISEEDKKKTDS
protease stability score: 0.793

DEDKMKSILTVAQEGDPDEMKRQADEDARVHIGDKRVHGRESFQKAMDEYTKAVDSQHVKRVSSRENRVKVTAVLRFNGSHIDVVVQIRAHNGRIEEIIFRVTDPKQKTTLKKIIS
protease stability score: 0.053

DEEELKDVLKKFSKNDEDFFKDLADKDARAVYGDKEVHGREEMSDLWRILKEQVDHMHINHMKLQGDRIVVDFTMTINGQEYVNVQELKFQNGKLQEVVVKVTDEEQMKRLLKIEK
protease stability score: 0.298

DDEAQRVFEDWLENVKKGDEDHAVQLADPNADFVIGDKTYHGREQLKREIKHERDRLRREMRIQDFDDQPPRIDIKFEFTNQHNGKPSSDTAVMKLQMHNGDVQALVVTQHR
protease stability score: -0.302

DEEDERTVKERMKKNNFDELAKNADENARATYGDKTYHGREQVRKAAKDFKDAVDRVKIDSISVHNGTVRMEFTVVINGRHFEMVLYVHVHNGKVQHMEFQATDDKIRKDLKRLQE
protease stability score: -0.275

EDKAKTLLQQYMEAVHQGDPKQVEEMLDPNAQVVIGDKSVRGQNQIQQMVRKLHQHARIDIHVKDLKADGNNVHLTFSQKVEVNGRPERDEATATMVVDNGRAQYLQIEMDETFQRQLEK
protease stability score: -0.341

DEKKIYEVLHKAVQMYVSGNDEEVRKLLKKDAEIEVADHKYRGVDEVVKVVDQFRKYGVELQIDDAKFDGNKVNAELTLHAGGETWKFTVTAEADGGKVDKVTFHVTEEVKKRIQKG
protease stability score: -0.045

DEKRVRRFAHKFIEVIERGDEHELRNLMDPDASMRVGDRTIHGRDEAARTIMKFLKRVDNLEVKSYDAQGDKVDIKVRASHDGKEHRITFDVKVHNGHIRHVTVKID
protease stability score: 2.64

DEDLERIIRRFMTALETGDPEELKKQMDENVRVQVGDKVLNGREEAAKHWTKVRDDLRIKIDTFHVENNGNRIDLSVDAEAEHNGRPQRYTLHMKAQVHNGKIKNATFTREQ
protease stability score: 0.868

DEDRLRELVKKFVDAMRTNDEDRIREMMDKDVRVEVGDTVIKGHNEAKKWAKRLRERADHIHFDSVHVQGDRAEVDFQVRHNGKTDRNVLVLRMNNGRVQELRVHTK
protease stability score: 1.81

DEKDLEELAKDVIEAYQDGDEQRLRNNFDKDARWHIGDKTFHGRERNVRHLVEEAKRVDHIHVTTMEVQGNTVRMVLRMNHNGKSDHVDIQITFENGRAQSVTVTKP
protease stability score: 0.369

DEEEQDKVRKNIHHNNFDHLVQMADPNAHVKIGDKRIHGREELRKYQEKLKKQADHFSIDDMKVEGNKFKVKNNFKVNGQSFEHDYEATVQNGRLKSATVDARDEEDKKKLNEQMS
protease stability score: 0.451

DERQVERIDRHLKALEHGDEKTLVEMIDPNAHFSVGDKEIHGREEYAHQQRRRVKESRFQVTIKDVQVNGDTVHIKYTSDQKHNGQPREDSNVMVMDATGERIESAKVTKDQ
protease stability score: -0.418

DDQKEIEKVLEVIKRMDTGDEKNVKEMFDPNARASVGERTYHGREDIQSFARELKERVDHVRIDSMSAHGDKATVDLRMNENGRTERYSVRVQIHNGRARHLRYTTK
protease stability score: -0.219

DEDARSNFQELLKALQTGDERLFEKNVDPNVTFRYGDKTLTGRHHIMEQLRRDKENSRQDFDVKEWHFHGNRIDVKAQLRFEKNGKPDTVDVNLVAIAHNGRIQEIQIDVQK
protease stability score: -0.278

DEDFDTQLEEMLKNILNGNTEEIDKYADPNVKLEVGDHEYHGREHVKENWKEELDHMDVEVKSVHISARDGRAHVNLEFVVNIDGRPRHVKVREEFVWKNGKLKRANRHFSEEVKRQLER
protease stability score: 0.677

DHEARKLMKRFFSAINHGDPDQIRKNVDKDVKAQVGDKTVHGREEWVKWMTRRLDEIKMHYDVTTIDVQGDKVHAQAKVRYDVDGRPITDQVTFTARIENGKITSLSLRMDPENQQKIEK
protease stability score: 1.15

DDHAQRHLKELLKVINTGDEEEVEHMADPNARIQVGDKVFHGMRSYVDDIRRKKEELNVEYNVRRMDADGNRVEANVDVVFNHNGKPDRRTVDMKATIRNGKIKSMHWQENP
protease stability score: -0.227

DTQALKHARSVLEDNDWDKLQKLADKDARATVGDTTYHGREDIQTWLKRAEETVDHVNIKSISIDEDSISVRFVMNVNGKTVEMVITIQLHNGRIKFLRIQARSEEQEKTIHEVVD
protease stability score: -0.051

DDERITELVTRFEKALQRGDNDEMERLMDPNARVRYGDKEYHGREDIKRALKEEKKRVDHFRLESVRWKNGHVEIFMKFTVNGRTEHRVFDIQLHNGRMKEMELTTS
protease stability score: 1.15

DDRNNHRAKTFLTALNHNDPDQMERMVDENAQVQVGDKSYRGREDMKRWLKELIDSIRLEVHVHSLTQHNGVAVADIEETRESNGDPEEDSFTLYIQVHNGQAKRLEESKKS
protease stability score: 0.552

DEDEEKRIRKYIKQQETGDPDKLNKYFDKDVHLHVGDKEVKGDEQANRELEHKFRKLRYSFEVKKLEVSNGKVEVKYHATVESNGKPHTYEVSADATLHNGRLQSQVNNERG
protease stability score: -0.021

DSERASEAARTFVDAMRTNDEKQFNELFDPNARVRIGDEKVHGMDRITDQLHNLNKKADHNEVLDYKVNGNTAVVHFQVDHNGQTRRYRIVITMHNGRVHEMQVNTK
protease stability score: 0.458

DEKDVEKIMKKMDETFVKGNTEELEKLGKEDVEVQYGDKREKGPDAIRKVLEKVKQLGIKVEYKEVHIKGDTATVKVEADMAGQTARFEVTYVVRGNRVDRVVVKYDEEAQKVIKHG
protease stability score: 0.772

DEKKVKELLVRAVQAYVNGNTEEVKKLLKEDVQLHAVNHTYHGVEQLLKVVKRMKEYGIKLQVTDHKVDGDKVDVKVQFHAAGETKEVTFRVQADGGKVDKVEVHVTEEVQKLAEKG
protease stability score: 1.05

DESVTEQANKMLDNIEKNNPEKVREQVDPNAKLQIGDKTLSGREHVQKQVEREMKDISVTRDLKSVNVRNGRAVFDMTVDFDVNGKPIHAHQVMEVQATNGRIKSVTYKIDTEELRKIDK
protease stability score: -0.499

DEQTKAERFVQRVEEILKHGDEKKYAHLADKNVKVKYGDKEWHGREHWEKEVKKTRDKVDDIRIDYKELQVHNGKVDVRFQVRNNHNGKNESRDASYTLDDHNGRIRIQSMHVK
protease stability score: -0.009

DEDAVRVMETYMKIYETGNPEELNRLVDPNVKFNIGDQRIKGREHARKFWRKILQHSRVELRRLDVHTRPNRVEARAEVVVNHNGKPKNFQFTFSAHLHNGRIKEVTIKHSK
protease stability score: 1.34

DEDSQTKLAELFITALEEGDPELANKNVDENARADVGDKTLHGREDVSRMVHDLRRRADHIQVETLEVRNGRVDAIIVIDVNGKKVRFRMEIEIHNGRIKHLRMKSE
protease stability score: 0.653

DESLADVFRRLLEAYRNGDEQKLRDNVDPNAKFNIGDKRFSGREQFARDMHKERKEIRVSIQLHEYDNQGEDVDFTFQFSAEVNGEPVHDTVRVEVHAHNGKIKRVHMHMSEKFQHQLRG
protease stability score: -0.027

DTEKTTELKKMFDHEQEGNENHLMRMFDPNATVQVGDKRIHGREDLQRWLDRFRKNQRVNVRSITVDVQGERFRVEVEADAKHNGRPNQMHRSMEVEFHNGRIKRADFQTDG
protease stability score: 0.124

DEKEHATEWLEDWQQQLRTGDEKSVANLFDPNARLNVGDKEVHGREDFEKEQKKIREEADHVDVEIVDLKTSPGHIQMFFNLRQTHNGQRQSHREVMVLRLQGDEVRVVKVEHN
protease stability score: -0.056

DDRDIKQAADRFLEDIKTNNPENVRKLVDENARVQIGDKQYRGKERIQEAMEEWIKRVDHWRIEDIKIHGDQVHVKMRINVNGRNLTFIMVVSIKNGTLKTLTMNVTDTEKLREMLR
protease stability score: 1.27

DETKLMTELAEKLNRVIQKNNPDEARKLMDPNARQQVGDTRYHGNEQLAEYMKDMHERYDHVEVDVKDVNVSGDHATLEAKVHFRHNGKNTTINQNIVATIHNGKVVLKQVTSK
protease stability score: 0.465

DEEHLKRVNETVMDIVKNNDPNQLREMVDPNVKVDVGDQRVHGRDKAAEVVKEWEKHVDRVTIRHVSVHNGRVRVVFQLESNGKTKDVQILFVYENGRIHSMRFTSQ
protease stability score: 0.933

DKKEHQEAAETFDRALKRGDPDTAMSLFDKDARANVGDKTYQGSEKLSEAMHRLSEEADRFHVRDVHFTNGEVSVNMYLNVNGKRVQVDVHIELSNGRAKEVTFNPDQLNEMQN
protease stability score: -0.119

DESQAEALHEVLQAERTNDPKKVEEQMDPHVNIVIGDKTYHGRDRIREDVKRKIDEMRVHVESVRFDEQGDKARAEATLRYNHNGRPSSKKIVIQMKAENGQIKTMRVHDTK
protease stability score: -0.646

EEELERRVEDQFKDWNTGDPDRDREMFDKDATVRVGDKKIKGSSQFRDELEKRRREMEFHVEVKDIQDEPGRVNVTFKFRTNHNGQPKEDTMRFHMTWHNGRIKHMSIHHDG
protease stability score: 0.641

DTELKDQIKRFLSERNSGNPQKMVEQMDPNANMSVGDKSVRGREQVSEQAEREKRELHYRVRSVDISVNGDKVKVKINVEREHNGRPFTMTLDLTIRAHNGRLTRVEVSLSEDDKREIKR
protease stability score: 0.521

DNEKVARNAADKLMTAINTGDPDQFVKLFDENAHVDVGDKTWRGRDKLKEWARKIVEQVDHLRARVTHMDVDGDKASVVFVVTLNKNGKEHSEQHEATAEVSGEQAVFKSLRHK
protease stability score: 1.38

DERDATNAIESVMKAIKEGDPDQMQKNADPNARLQIGDKVYHGRETIVTLLKELAHRVDHLQIDSMHQHNGRVTVSILVQVNGQRRTVNIEAQARDGRLKNMHIDPEFWRQLER
protease stability score: 0.781

DEDNQTQTAERVVEIMRTGDEHKMRNLADENVKIQIGDKKYRGRDEASKQAKELRDRVDRLRVVRFDVHGNKVRIVMQFKYNGVTVNFKFTVEIHNGRVKSMEMRYTNPEDLKRARS
protease stability score: 0.182

DERDQRRRMDQARKILKNNDEEKFNRLLDENARMRVGEKVFHGRRQARTHLKRLHEHVDSIRVNHVSVHNGNVEVVVTMQHNGRYRQIRFDMQVHNGRAKEVKIDTS
protease stability score: 0.091

DESLRSKAEEFLKAIEHGDPDEASRQLDPNARFEIGDKEITGRETFDRTMHETRNQMRLEVKSYDARASNGRVHMEVRFQATHNGQPQDNREVQDFQFSNGRIERVSVEKDS
protease stability score: -0.463

DEDRVRRHLEKAFKVIQNGNEEEAKKIGAPDVEYHYADKELEGEEAVIVAVRIVKKIGAEVKTQEEEVKGNEMRATFQYKKGDTTVQTKATVVYEGDKLKKARVELSDEVKKIIHQG
protease stability score: -0.111

EEELKKVWTEMQDALENGNEEKIEENFDPNAHFQIGDTHIHGMHEWAHQQFREMKDIRVQVEIESVTFSGDKVNVEYSFTLEIDGRPQSNTATMSARVHNGHFKSVSIRIDPKELKDRQK
protease stability score: 0.601

DTEARKLIEELLRAVRDGDPDQVKQNADPNARVQYGDQTFHGMDRYAEWVEEMHKQARVSIEFDSFSFTGDKVQMHAKHVVEVNGKPQRDTVVIRAVVRGDKIRNIHFRMDEQRVRDQQS
protease stability score: 0.783

DQKKQQEVLEQWSKNDPRDLRKQADKDVRVQIGDTTYHGREDAQDALYTLAKRVDHFKYQHIETEGDHIRVDLVVNVNGREYQLTFEAQFHNGRLKTLEMQVRDEDQHKRLQEQLD
protease stability score: -0.22

DEEEMEKVLQVQSTGNPDRYRKLADKDVRLVVGDTEVQGKEKVVKKVHDFHKQIDHQDYESMSAEGNRIDVLLRNVVNGQELVLRVVVRVHNGRIKEVELRARSEEEQSRFDHAWK
protease stability score: 0.093
